Molecular target: ADP-ribosylation factor-like protein 13B (Arl13b)
Experiment: co-immunoisolation with paramagnetic beads, immunoblot quantification
Conditions: MDCK cells expressing Prom1 or K138Q; n = 3; parent: est. 0.53; read off a plot

Human Prominin-1 (Prom1/CD133), splice variant s2 (from UniProt O43490) K138Q
other: Arl13b / Prom1 ratio: 0.05

— PMC6331727
